Paper PMC12462528, “Molecular basis of ParA ATPase activation by the CTPase ParB during bacterial chromosome segregation” (Nature Communications, 2025)
Where a chain is given by its changes, count along the chain named. Names may count otherwise. Each block holds one molecule with its values, some of them ahead of it.

What was measured:
[1] = test system: ParA (His6-ParA) (Myxococcus xanthus); assay: BLI; conditions: 1 mM ATP, BLI: 25 mM HEPES/KOH pH 7.6, 100 mM KCl (150 or 500 mM where stated), 10 mM MgSO4, 1 mM DTT, 10 mM (so in the source) BSA, 0.01% Tween 20, temperature not stated
[2] = biological target: T1, ParB delta21 del1-21 (Myxococcus xanthus) (UniProt Q1CVJ4); assay: BLI; conditions: BLI: 25 mM HEPES/KOH pH 7.6, 100 mM KCl (150 or 500 mM where stated), 10 mM MgSO4, 1 mM DTT, 10 mM (so in the source) BSA, 0.01% Tween 20; temperature not stated
T1 sequence: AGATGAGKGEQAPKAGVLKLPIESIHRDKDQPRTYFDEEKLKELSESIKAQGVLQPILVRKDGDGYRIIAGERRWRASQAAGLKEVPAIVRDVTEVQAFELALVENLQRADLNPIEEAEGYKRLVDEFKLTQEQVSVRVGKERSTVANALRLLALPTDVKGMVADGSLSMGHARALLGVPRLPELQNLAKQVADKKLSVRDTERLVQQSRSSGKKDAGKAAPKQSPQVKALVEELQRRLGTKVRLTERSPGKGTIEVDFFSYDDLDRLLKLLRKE

[3] = biological target: T2, ParA (His6-ParA) (Myxococcus xanthus) (UniProt Q1CVJ3); assay: BLI; conditions: BLI: 25 mM HEPES/KOH pH 7.6, 100 mM KCl (150 or 500 mM where stated), 10 mM MgSO4, 1 mM DTT, 10 mM (so in the source) BSA, 0.01% Tween 20; temperature not stated
T2 sequence: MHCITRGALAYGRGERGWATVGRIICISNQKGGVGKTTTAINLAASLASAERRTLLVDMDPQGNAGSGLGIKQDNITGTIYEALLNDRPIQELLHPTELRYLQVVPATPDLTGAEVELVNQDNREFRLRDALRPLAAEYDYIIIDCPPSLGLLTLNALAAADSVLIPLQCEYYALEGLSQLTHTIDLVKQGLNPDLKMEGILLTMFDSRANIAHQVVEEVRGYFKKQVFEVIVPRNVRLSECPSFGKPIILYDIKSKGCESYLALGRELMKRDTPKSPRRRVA

[4] = biological target: T3, ParA-D60A D60A (Myxococcus xanthus) (UniProt Q1CVJ3); assay: BLI; conditions: BLI: 25 mM HEPES/KOH pH 7.6, 100 mM KCl (150 or 500 mM where stated), 10 mM MgSO4, 1 mM DTT, 10 mM (so in the source) BSA, 0.01% Tween 20; temperature not stated
T3 sequence: T2 sequence with D60A

[5] = biological target: T4, ParB-Q52A (ParB*) Q52A (Myxococcus xanthus) (UniProt Q1CVJ4); assay: BLI; conditions: BLI: 25 mM HEPES/KOH pH 7.6, 100 mM KCl (150 or 500 mM where stated), 10 mM MgSO4, 1 mM DTT, 10 mM (so in the source) BSA, 0.01% Tween 20; temperature not stated
T4 sequence: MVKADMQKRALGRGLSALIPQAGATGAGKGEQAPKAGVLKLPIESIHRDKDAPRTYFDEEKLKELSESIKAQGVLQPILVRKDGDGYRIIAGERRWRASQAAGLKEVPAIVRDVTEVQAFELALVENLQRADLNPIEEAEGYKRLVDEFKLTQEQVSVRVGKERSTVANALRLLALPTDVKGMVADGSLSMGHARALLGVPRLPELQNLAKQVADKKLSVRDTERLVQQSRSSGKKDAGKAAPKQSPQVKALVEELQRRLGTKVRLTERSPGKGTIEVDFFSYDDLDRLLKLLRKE

[6] = biological target: T5, ParB (Myxococcus xanthus) (UniProt Q1CVJ4); assay: BLI; conditions: BLI: 25 mM HEPES/KOH pH 7.6, 100 mM KCl (150 or 500 mM where stated), 10 mM MgSO4, 1 mM DTT, 10 mM (so in the source) BSA, 0.01% Tween 20; temperature not stated
T5 sequence: T4 sequence with A52Q

[7] = biological target: T6, ParA-R238E (ParA*) R238E (Myxococcus xanthus) (UniProt Q1CVJ3); assay: BLI; conditions: BLI: 25 mM HEPES/KOH pH 7.6, 100 mM KCl (150 or 500 mM where stated), 10 mM MgSO4, 1 mM DTT, 10 mM (so in the source) BSA, 0.01% Tween 20; temperature not stated
T6 sequence: T2 sequence with R238E

[8] = biological target: the molecule itself; assay: SEC; ParA proteins at 2.5 mg/mL (75 µM) in 25 mM Tris/HCl, 200 mM KCl, 5 mM MgSO4, 2 mM DTT, pH 7.4; Superdex 75 3.2/300; monomer to dimer
[9] = biological target: T7, ParB-Q52A (Myxococcus xanthus DK1622, UniProt Q1CVJ4 1-296, Q52A); assay: BLI; ParB-Q52A (10 µM) loaded on closed parS DNA on the biosensor; ParA variants (5 µM) in solution with ATP (1 mM) and 500 mM KCl; conditions: both partners purified
T7 construct: ParB of Myxococcus xanthus DK1622, variant lacking CTPase activity; Closed clamps formed with CTP and parS DNA; also called CTP hydrolysis-deficient ParB variant; source: E. coli Rosetta(DE3)pLysS, purified (as wild-type ParB)
T7 sequence (looked up): T4 sequence

[10] = biological target: T8, ParB (wild type) (Myxococcus xanthus DK1622, UniProt Q1CVJ4 1-296); assay: BLI; double-biotinylated 234-bp parS DNA on streptavidin biosensor, loaded with ParB or its derivatives (10 µM) and 1 mM CTPγS; ParA-R238E variants in solution with 1 mM ATP; 25 mM HEPES/KOH pH 7.6, 100 mM KCl, 10 mM MgSO4, 1 mM DTT; apparent KD; conditions: both partners purified
T8 construct: ParB of Myxococcus xanthus DK1622, translation product of ORF MXAN_7476; In the BLI assays loaded as a closed clamp on parS-containing DNA with CTPγS; also called M. xanthus ParB; wild-type ParB; source: E. coli Rosetta(DE3)pLysS, purified (HisTrap HP, Ulp1 cleavage, HiTrap SP HP)
T8 sequence (looked up): T4 sequence with A52Q

[11] = biological target: T9, ParB-Q52A-R13K (Myxococcus xanthus DK1622, UniProt Q1CVJ4 1-296, Q52A | R13K); assay: BLI; ParB-Q52A variants loaded on closed parS DNA on the biosensor with CTP; ParA-R238E (5 µM) in solution with ATP and CTP (1 mM each); conditions: both partners purified
T9 construct: ParB of Myxococcus xanthus DK1622, ParB-Q52A variant lacking the conserved residue R13; also called ParB* R13K; R13K variant; source: E. coli Rosetta(DE3)pLysS, purified (as wild-type ParB)
T9 sequence (looked up): T4 sequence with R13K

[12] = biological target: T10, ParB-Q52A-R13A (Myxococcus xanthus DK1622, UniProt Q1CVJ4 1-296, Q52A | R13A); assay: as above; conditions: both partners purified
T10 construct: ParB of Myxococcus xanthus DK1622, ParB-Q52A variant lacking the conserved residue R13; also called ParB* R13A; R13A variant; source: E. coli Rosetta(DE3)pLysS, purified (as wild-type ParB)
T10 sequence (looked up): T4 sequence with R13A

[13] = biological target: the molecule itself; assay: crystal structure; His6-ParA_(21-274)-D60A (1 mM) with 10 mM ATP and 5 mM ParB_(1-20), sitting drop, 20 °C; crystals held only the ParA dimer with ATP

Molecule: 234-bp parS fragment, closed on biosensor
Kd ([1]; 150 uM ParB1-20 peptide): 400 nM
Kd ([1]; no ParB1-20 peptide): 7800 nM

Molecule: TCCGCTTGGCGTGAGTTCCTGACGCTTGGTGGGAAGGATGCGCGTGCTGATGCGTGCACCTCAGTGAAGTGGATGGCGCGGCTGCTCATGCGCGGGTTGCTCAGCGCCTGTTCCACGTGGAACGCGGGATGGATTGATGGTGGGCACGCGCGCAGCGCCGGAGAGTTCGCTGACGGCTCCGCGTTCAGGCTCGTGATGCGCTCATGGTTCATGGAGTGGTGAGTGCTCCACCGG (double strand) [234-bp parS fragment, closed on biosensor]
binding [2]: binds
Kd [3]: 400 nM
binding [4]: binds
binding [5]: binds
binding [6]: binds
binding [7]: no binding

B1: ParA (wild type) (natural protein, Myxococcus xanthus DK1622, UniProt Q1CVJ3 1-283, looked up)
chain: T2 sequence
notes: ParA of Myxococcus xanthus DK1622, translation product of ORF MXAN_7477; No tag cleavage step is described; also called His6-ParA; wild-type ParA; source: E. coli Rosetta(DE3)pLysS, purified (HisTrap HP, HiTrap Q HP)
binding result [8]: binds
binding result [9]: binds

B5: ParA-R238E (natural protein, Myxococcus xanthus DK1622, UniProt Q1CVJ3 1-283, looked up)
chain: T2 sequence with R238E
notes: ParA of Myxococcus xanthus DK1622, translation product of ORF MXAN_7477; Purified as His6-ParA; no tag cleavage step is described; also called His6-ParA-R238E; source: E. coli Rosetta(DE3)pLysS, purified (HisTrap HP, HiTrap Q HP)
Kd [10]: ~1000 nM
binding result [11]: binds
binding result [12]: binds

B7: His6-ParA_(21-274)-D60A (domain or fragment, Myxococcus xanthus DK1622, UniProt Q1CVJ3 21-274, looked up)
chain: VGRIICISNQKGGVGKTTTAINLAASLASAERRTLLVDMAPQGNAGSGLGIKQDNITGTIYEALLNDRPIQELLHPTELRYLQVVPATPDLTGAEVELVNQDNREFRLRDALRPLAAEYDYIIIDCPPSLGLLTLNALAAADSVLIPLQCEYYALEGLSQLTHTIDLVKQGLNPDLKMEGILLTMFDSRANIAHQVVEEVRGYFKKQVFEVIVPRNVRLSECPSFGKPIILYDIKSKGCESYLALGRELMKRDT
notes: For NMR the protein was 2H/13C/15N-labelled; source: E. coli Rosetta(DE3)pLysS, purified (as His6-ParA)
binding result [13]: binds

The remaining lines, values ahead:

binding result [9]: binds
B2: ParA-D110R (natural protein, Myxococcus xanthus DK1622, UniProt Q1CVJ3 1-283, looked up)
chain: T2 sequence with D110R
notes: ParA of Myxococcus xanthus DK1622 with an exchange in the helix H4/H6/H7 region; source: E. coli Rosetta(DE3)pLysS, purified (as His6-ParA)

binding result [9]: binds
B3: ParA-D110R/E117R (natural protein, Myxococcus xanthus DK1622, UniProt Q1CVJ3 1-283, looked up)
chain: T2 sequence with D110R, E117R
notes: ParA of Myxococcus xanthus DK1622 with two exchanges in the helix H4/H6/H7 region; source: E. coli Rosetta(DE3)pLysS, purified (as His6-ParA)

binding result [9]: binds
B4: ParA-E117R (natural protein, Myxococcus xanthus DK1622, UniProt Q1CVJ3 1-283, looked up)
chain: T2 sequence with E117R
notes: as for B2

binding result [9]: binds
B6: ParA-Y81L (natural protein, Myxococcus xanthus DK1622, UniProt Q1CVJ3 1-283, looked up)
chain: T2 sequence with Y81L
notes: ParA of Myxococcus xanthus DK1622 with an exchange in the helix H4/H6/H7 region; also called Y81L variant; source: E. coli Rosetta(DE3)pLysS, purified (as His6-ParA)
